From patent US20110086029A1 (University of California, published 2011)

T1: murine N-Cadherin (murine, UniProt P15116 160-724, limits assumed)
T1 construct: The assay used to show cross-reactivity is not described
T1 sequence (looked up): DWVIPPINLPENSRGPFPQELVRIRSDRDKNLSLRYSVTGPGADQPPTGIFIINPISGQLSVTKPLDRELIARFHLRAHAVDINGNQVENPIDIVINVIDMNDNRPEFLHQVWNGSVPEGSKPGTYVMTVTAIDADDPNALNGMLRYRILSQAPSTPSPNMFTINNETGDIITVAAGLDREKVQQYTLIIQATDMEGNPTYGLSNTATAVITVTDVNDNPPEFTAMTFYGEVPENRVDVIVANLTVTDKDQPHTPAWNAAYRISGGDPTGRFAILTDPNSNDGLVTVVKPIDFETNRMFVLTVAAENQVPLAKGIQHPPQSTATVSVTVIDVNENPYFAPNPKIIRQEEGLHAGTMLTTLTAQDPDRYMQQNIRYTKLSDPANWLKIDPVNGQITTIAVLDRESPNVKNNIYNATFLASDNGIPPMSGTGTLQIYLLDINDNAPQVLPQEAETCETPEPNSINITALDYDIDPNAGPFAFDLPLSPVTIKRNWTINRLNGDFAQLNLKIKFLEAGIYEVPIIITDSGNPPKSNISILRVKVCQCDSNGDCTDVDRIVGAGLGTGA


Biological target: T1, murine N-Cadherin
Assay: assay not described

| Binder | binding result |
| --- | --- |
| N-Cadherin antibody 1H7 (monoclonal antibody produced by mouse hybridoma ATCC Accession No. PTA-9387) (antibody, V domains shown, Mouse hybridoma monoclonal antibody) VH: QVQLQQSGAELVKPGASVKLSCKASGFTFTDYLIQWVKQRSGQGLEWIGWFYPGSGSIKYNEKFKDKATLTADKSSNTVYMEISRLTSEDSAVYFCARRGDWGGFFDYWGQGTTLTVSS VL: DIVLTQSPAIMSASLGERVTMTCTASSSVSSSYLHWYQQKPGSSPKLWIFSTSNLASGVPDRFSGSGSGTSYSLTINSMEAEDAATYYCHQYHRSLTFGAGTKLELK | binds |
| N-Cadherin antibody EC4 (monoclonal antibody produced by mouse hybridoma ATCC Accession No. PTA-9388) (antibody, V domains shown, Mouse hybridoma monoclonal antibody) VH: QVKLQQSGAELARPGASVKLSCKASGYTFTSYWMQWVKQRPGQGLEWIGAIYPGDGETTYTQKFKGKATLTADKSSSTAYMQLSSLASEDSAVYYCAKGDGYWAMDYWGQGTSVTVSS VL: DIVMTQTPLSLPVSLGDQASISCRSSQSLVHSNGNTYLHWYLQKPGQSPKLLIYKVSNRFSGVPDRFSGSGSGTDFTLKISRVEAEDLGVYFCSQSTHVPLTFGAGTKLELK | binds |
